Series [1] deals with T1, Transferrin receptor 1 (hTfR/hTFRC) extracellular domain (Homo sapiens, UniProt P02786 SEQ:89-760). The series is described as follows: SPR; not measurable. The conditions noted are these: tags: N-terminal His6; expressed in HEK293; Sino Biological 11020-H07H; chain copies: 2 (inferred); label: biotin (SPR) or Cy3 (cells). How it is done: (§1) Surface plasmon resonance-based biosensor assay. The Biacore T100 (GE Healthcare, Uppsala, Sweden) was used to monitor label-free interactions of truncated TR14-hTfR1 in real time. The biotinylated aptamer was coupled to a streptavidin-coated Biacore chip (SensorChip SA, BR-1003-98, General Electric Company) by an injection in binding buffer at a concentration of 25 μg/mL (30 mM Tris-HCl, pH 7.5; 150 mM NaCl; 5 mM MgCl₂) at 10 uL/min. The RNA was refolded by heating to 65° C., followed by cooling to 37° C., before immobilization. To measure binding kinetics, five concentrations of purified hTfR1 protein were injected at a flow rate of 10 uL/min. After binding, the surface was regenerated by injecting 50 mM NaOH at a flow rate of 15 μL/min for 20 s. Data from the control surface were subtracted. BIAevaluation software (GE Healthcare) was used for analysis. The binding data was fit to a 1:1 binding with a mass transfer model to calculate kinetics parameters as previously described (Hernandez et al, 2009; Soontornworajit et al, 2011)
T1 sequence (P02786 89-760): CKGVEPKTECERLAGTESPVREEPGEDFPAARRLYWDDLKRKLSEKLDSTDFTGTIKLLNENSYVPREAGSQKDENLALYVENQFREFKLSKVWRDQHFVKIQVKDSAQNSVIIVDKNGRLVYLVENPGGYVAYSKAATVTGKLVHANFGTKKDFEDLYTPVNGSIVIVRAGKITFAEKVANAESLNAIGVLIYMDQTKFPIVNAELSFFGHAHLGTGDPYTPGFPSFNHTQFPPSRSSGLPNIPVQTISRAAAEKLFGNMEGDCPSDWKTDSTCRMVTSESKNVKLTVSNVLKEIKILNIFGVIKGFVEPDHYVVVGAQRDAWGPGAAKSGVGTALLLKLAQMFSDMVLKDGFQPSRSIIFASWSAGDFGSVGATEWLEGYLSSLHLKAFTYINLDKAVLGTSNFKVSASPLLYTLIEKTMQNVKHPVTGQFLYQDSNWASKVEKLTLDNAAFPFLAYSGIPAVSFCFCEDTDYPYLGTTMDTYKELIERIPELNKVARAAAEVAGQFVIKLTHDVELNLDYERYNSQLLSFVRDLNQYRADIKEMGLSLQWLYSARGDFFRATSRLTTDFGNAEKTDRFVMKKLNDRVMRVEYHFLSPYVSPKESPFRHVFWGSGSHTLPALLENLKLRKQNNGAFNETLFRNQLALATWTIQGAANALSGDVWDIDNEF
In general terms: SPR reads the build-up and loss of mass on a sensor chip optically.

Series [2] has as its target T1, Transferrin receptor 1 (hTfR/hTFRC) …. In words: SPR; 30 mM Tris pH 7.5, 150 mM NaCl, 5 mM MgCl2; aptamer immobilised. The note with it: tags: N-terminal His6; expressed in HEK293; Sino Biological 11020-H07H; chain copies: 2 (inferred); label: biotin (SPR) or Cy3 (cells). The procedure:
as §1

For GCUCAAUGCGUUCACGUUUAUUCACAUUUUUGAAUUGAGC (ssRNA, 2'-F pyrimidines (rule of the parent selection)) [TR14 ST1-1 (40-nt)], the binding result in series [1] is “no binding”. As a reminder, the Kd is the free concentration of one partner at which half of the binding sites on the other are occupied at equilibrium, for simple one-to-one binding. High values mean weaker binding, low ones tighter binding. In turn, GGGGCUCAAUGCGUUCACGUUUAUUCACAUUUUUGAAUUGAGCAUG (ssRNA, 2'-F pyrimidines (rule of the parent selection)) [TR14 S1 (46-nt)] returned a Kd in series [2] of 1460 pM. This lies in the single-digit nanomolar range. On the same count and under the same terms, with UUUAUUCACAUUUUUGAAUUGA (ssRNA, 2'-F pyrimidines (rule of the parent selection)) [TR14 ST1-3 (22-nt)] the figure was 22 pM. In the case of AAUGCGUUCACGUUUAUUCACAUUUUUGAAUU (ssRNA, 2'-F pyrimidines (rule of the parent selection)) [TR14 ST1-2 (32-nt)], in series [1], the binding result is “no binding”.

For the origin of these results see patent publication US20220396794, “[…] AGAINST TRANSFERRIN RECEPTOR (TfR)” (APTERNA LIMITED, published 2022).
